{
  "source": "patent US20140235490A1",
  "target": "Firefly luciferase fragment FFL (265-550) (Photinus pyralis) [luciferase: P08659]",
  "sequence (P08659 265-550)": "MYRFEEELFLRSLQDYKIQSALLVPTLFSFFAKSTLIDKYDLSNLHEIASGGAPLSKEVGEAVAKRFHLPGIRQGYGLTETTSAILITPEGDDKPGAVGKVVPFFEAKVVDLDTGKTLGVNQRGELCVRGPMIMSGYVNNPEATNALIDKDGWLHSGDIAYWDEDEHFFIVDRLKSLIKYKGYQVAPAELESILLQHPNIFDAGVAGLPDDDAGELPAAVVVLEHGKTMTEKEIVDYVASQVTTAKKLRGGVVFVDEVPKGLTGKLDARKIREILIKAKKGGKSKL",
  "assay": "cell-based or functional assay",
  "data": [
    {"substance": "Firefly luciferase fragment FFL (1-478) (from UniProt P08659 1-478)", "values": [
      {"measurement": "luciferase activity after recombination of the fragments", "result": "< 4", "unit": "%"}
    ]}
  ]
}
